According to the supplement of paper PMC10126150:
± gives the standard deviation of the averaged measurements.

Tested on: ATP
Experiment: switch fluorescence ratio, 500 uM ATP over buffer (Cy3 cluster intensity, sum of 5 cycles each) (fold (ratio)); higher = stronger signal-on switching upon ATP binding; sequences stand for … in TCGTCGGCAGCGTCAGATGTGTATAAGAGACAGTTTTTTTTTTTTTTTTTTTTTTTTT…TC
Conditions: aptamer strand: ATP DNA aptamer (quencher-CACCTGGGGGAGTATTGCGGAGGAAGG + anchor), 100 nM annealed; ATP concentration: 500 uM
Procedure, shortened: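 The quencher-labelled ATP aptamer, at 100 nM, was annealed to Cy3-labelled switching-strand clusters on a modified Illumina MiSeq flow-cell. The clusters were imaged in selection buffer, then after 15 min with 500 uM ATP at 22 °C, and this buffer/ATP cycle ran five times with NaOH stripping and re-annealing between runs. Per-cluster fluorescence ratios, summed target-cycle over summed buffer-cycle Cy3 intensity, were averaged per switch-domain sequence. Clusters outside 100-1000 RFU were excluded.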
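Further: ATP exposure 15 min at 22 °C before imaging.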

Sequence	switch fluorescence ratio
CAATGTCACC	1.06 ± 0.019
TTGCGTTGTG	0.992 ± 0.041
TACCGTTTTT	1.01 ± 0.045
GGGGCATGGG	0.995 ± 0.033
CGGCTTGATA	1.01 ± 0.033
GACGATGTCT	1.0078 ± 0.00071
GGCCAAGGTC	1.004 ± 0.004
TTTATTTGG	1.09 ± 0.12
CATGGGACGT	0.988 ± 0.071
AGGCAGTCCA	1.003 ± 0.0065
TAGTATGTGG	0.9612 ± 0.0025
GGGGCACTGC	1.008 ± 0.0024
GAAGTTAGTT	0.993 ± 0.038
AAGGGTTATG	0.994 ± 0.027
TACGATGCGG	1.07 ± 0.038
TGAGGGGGG	1.01 ± 0.022
GCTGGGGTGG	1.01 ± 0.05
AGAGGGTTGT	0.992 ± 0.031
TTGGGGATGG	1.01 ± 0.047
CCGTAACGGG	1.09 ± 0.085
TTACCGGATA	1.035 ± 0.0092
GGATTTCTTA	1 ± 0.025
TTTTTGCCGA	1.01 ± 0.052
TTTCCTTTTG	1.01 ± 0.054
GTATGTGGGT	1.023 ± 0.0072
TTGTGGTGGG	1.03 ± 0.069

Sequence	switch fluorescence ratio
TTTTTGTCCA	1 ± 0.041
CTGGTATGCG	0.969 ± 0.054
AACTTTTATT	1.01 ± 0.015
TATAACTCAT	1.02 ± 0.029
CTTTGTATGG	1 ± 0.017
GTATCCGGGA	1.02 ± 0.057
GTATGATTTA	0.989 ± 0.037
TATAGGGAGG	0.988 ± 0.027
TTCAAGGGAG	0.995 ± 0.014
TGGAGCTCTG	0.981 ± 0.027
TACGTATGAA	1.17 ± 0.014
GGTTCAGTG	0.9936 ± 0.0079
AAACGGTTAC	1.24 ± 0.038
GGATGGACAG	1 ± 0.01
CTGGGACGTG	0.967 ± 0.028
GCTAGCCAAG	1.04 ± 0.053
GAGGGTTGTT	0.997 ± 0.019
TTTGTTGATA	0.983 ± 0.032
TATATGGGGG	0.981 ± 0.026
CACCTTACTT	1.26 ± 0.062
GTCAGATGGG	0.948 ± 0.01
ATTTTGTGAG	0.969 ± 0.031
CCTAGGGTCA	1.01 ± 0.018
TCATAGTGTT	1.01 ± 0.04
GGATTTGTGG	0.978 ± 0.023
TTAATGTGAT	1 ± 0.012

Sequence	switch fluorescence ratio
ACATGTGGAT	0.996 ± 0.05
ATAAACGTTT	1.018 ± 0.0069
ATAATTTTAG	0.999 ± 0.031
GGGGTACGCT	0.99523 ± 0.00067
GATTCAGTAC	1.61 ± 0.056
GGCGTAGGCC	1.2 ± 0.29
GGAATAGTAG	1.003 ± 0.0065
GACAGAAGTG	1.02 ± 0.019
TAAGTTGGGT	0.994 ± 0.042
CAGAGTTTAG	0.973 ± 0.032
TGGTGTTTTA	0.994 ± 0.023
CATGGATGCC	0.998 ± 0.022
ATAATTTTTT	1.03 ± 0.063
ATCAGTTAAT	0.996 ± 0.032
TTGTGTATGG	1.02 ± 0.052
CTATGCTCAC	1.45 ± 0.041
GGCGGGACGA	0.973 ± 0.036
CGTGTGATTT	0.988 ± 0.025
CTTCAAAGTA	1.03 ± 0.026
CTGTTCTGGG	1.003 ± 0.0063
GCGCAAGGGG	1.01 ± 0.015
AATTTTGATG	0.971 ± 0.018
GCAAAGGGCT	1 ± 0.035
TAACCTGGAG	1.18 ± 0.028
TCGGATGTCA	0.965 ± 0.049
